# Experimental data as given in paper PMC2875008.
# Read-outs that look alike come from different tables or passages of the source.
# T1: hRad52 (Homo sapiens, UniProt P43351 1-418)
# T1 sequence: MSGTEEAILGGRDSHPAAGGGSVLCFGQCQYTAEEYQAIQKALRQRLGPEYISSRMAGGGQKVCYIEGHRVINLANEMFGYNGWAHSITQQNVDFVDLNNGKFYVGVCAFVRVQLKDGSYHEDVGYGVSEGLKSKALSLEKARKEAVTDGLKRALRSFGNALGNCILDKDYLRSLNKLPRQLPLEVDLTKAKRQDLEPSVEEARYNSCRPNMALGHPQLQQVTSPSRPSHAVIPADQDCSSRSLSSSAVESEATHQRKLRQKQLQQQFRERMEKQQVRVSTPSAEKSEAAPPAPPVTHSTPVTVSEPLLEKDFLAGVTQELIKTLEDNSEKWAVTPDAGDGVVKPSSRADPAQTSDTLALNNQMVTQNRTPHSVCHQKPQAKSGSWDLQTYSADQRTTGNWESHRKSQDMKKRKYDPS
# T2: hRad52 1-212 (Homo sapiens, UniProt P43351 1-212)
# T2 sequence: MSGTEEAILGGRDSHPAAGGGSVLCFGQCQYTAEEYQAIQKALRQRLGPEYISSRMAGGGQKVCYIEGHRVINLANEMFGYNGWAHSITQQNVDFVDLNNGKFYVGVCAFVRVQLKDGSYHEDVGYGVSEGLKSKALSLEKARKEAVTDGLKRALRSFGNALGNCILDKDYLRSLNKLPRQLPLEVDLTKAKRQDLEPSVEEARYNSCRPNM
# Legend:
# hRad52 [1] = target: T1, hRad52; experiment: FRET titration
# hRad52 [2] = target: T1, hRad52; experiment: EMSA
# hRPA [3] = target: T3, hRPA (Homo sapiens, UniProt P27694;P15927;P35244 1-616;1-270;1-121); experiment: FRET titration
# T3 sequence (P27694 whole entry, chain 1 of 3): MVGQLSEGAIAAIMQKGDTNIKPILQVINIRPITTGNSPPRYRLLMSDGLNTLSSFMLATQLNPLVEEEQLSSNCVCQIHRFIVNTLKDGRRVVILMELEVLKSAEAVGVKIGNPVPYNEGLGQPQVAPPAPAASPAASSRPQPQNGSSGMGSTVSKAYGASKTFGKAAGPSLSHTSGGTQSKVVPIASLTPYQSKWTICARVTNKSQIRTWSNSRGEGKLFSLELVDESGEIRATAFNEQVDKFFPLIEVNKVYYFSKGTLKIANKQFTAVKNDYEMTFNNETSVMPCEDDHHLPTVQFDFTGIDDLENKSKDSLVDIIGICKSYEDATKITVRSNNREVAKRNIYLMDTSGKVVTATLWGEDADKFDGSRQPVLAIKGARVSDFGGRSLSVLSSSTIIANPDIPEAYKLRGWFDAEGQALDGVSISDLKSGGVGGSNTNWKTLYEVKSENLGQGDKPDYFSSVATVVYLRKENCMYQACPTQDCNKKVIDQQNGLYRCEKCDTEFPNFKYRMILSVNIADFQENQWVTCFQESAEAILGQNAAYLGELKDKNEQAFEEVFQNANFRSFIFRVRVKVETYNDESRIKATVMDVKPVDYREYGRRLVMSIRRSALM
# T3 sequence (P15927 whole entry, chain 2 of 3): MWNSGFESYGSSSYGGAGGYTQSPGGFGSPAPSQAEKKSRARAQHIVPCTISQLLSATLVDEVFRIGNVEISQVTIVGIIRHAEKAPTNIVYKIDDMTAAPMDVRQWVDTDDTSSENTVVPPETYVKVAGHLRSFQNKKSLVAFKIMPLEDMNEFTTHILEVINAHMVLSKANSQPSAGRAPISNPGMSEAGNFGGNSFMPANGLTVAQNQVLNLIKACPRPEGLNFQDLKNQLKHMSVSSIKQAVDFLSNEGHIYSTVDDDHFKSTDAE
# T3 sequence (P35244 whole entry, chain 3 of 3): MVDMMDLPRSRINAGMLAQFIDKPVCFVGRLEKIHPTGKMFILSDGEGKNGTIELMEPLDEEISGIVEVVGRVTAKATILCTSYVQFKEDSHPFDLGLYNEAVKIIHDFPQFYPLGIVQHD
# hRad52 1-212 [4] = target: T2, hRad52 1-212; experiment: FRET titration
# hRad52 [5] = target: T1, hRad52; experiment: FRET titration; remark: listed apart in the source
# hRad52 1-212 [6] = target: T2, hRad52 1-212; experiment: FRET titration; remark: listed apart in the source
# hRPA [7] = target: T3, hRPA; experiment: FRET titration; remark: listed apart in the source
# hRad52 [8] = target: T1, hRad52; experiment: FRET titration; remark: listed apart in the source
binder,measurement,setting,value
TTTTTTTTTTTTTTTTTTTTTTTTTTTTTTTTTTTTTTT (ssDNA) [poly(dT)-39],binding result,hRad52 [1],binds
TTTTTTTTTTTTTTTTTTTTTTTTTTTTTT (ssDNA) [poly(dT)-30],binding result,hRad52 [2],binds
same,binding result,hRPA [3],binds
same,binding result,hRad52 1-212 [4],binds
poly(dT)-60 (ssDNA) DNA: TTTTTTTTTTTTTTTTTTTTTTTTTTTTTTTTTTTTTTTTTTTTTTTTTTTTTTTTTTTT,binding result,hRad52 [5],binds
same,binding result,hRad52 1-212 [6],binds
same,binding result,hRPA [7],binds
TTTTTTTTTTTTTTTTTTTTTT (ssDNA) [poly(dT)-22],binding result,hRad52 [8],binds
TTTTTTTTTTTTTTTTTTTTTTTTTTTTTTTTTTTTTTTTTTTTTTTTTT (ssDNA) [poly(dT)-50],binding result,hRad52 [1],binds
